Laboratory results: PMC12823420
Blank lines part the entries; values can stand above or below the substance they belong to.

Assays:
[1] = biological target: UAP56-UCM-1-N-UBM fusion (Homo sapiens) (UniProt Q13838+P82979+Q86V81); experiment: GCI; conditions: 1 mM ATP, RNA immobilized, GCI: 25 mM HEPES pH 7.9, 50 mM KCl, 1 mM MgCl2, 1 mM TCEP, 25 C, AdML pull-down: 20 mM HEPES pH 7.9, 100 mM KCl, 2 mM MgCl2, 5% glycerol, 0.1% …
[2] = biological target: UAP56;SARNP (Homo sapiens;Homo sapiens) (UniProt Q13838); experiment: pull-down; conditions: 1 mM AMP-PNP; UAP56 bound with SARNP set to 100%; GCI: 25 mM HEPES pH 7.9, 50 mM KCl, 1 mM MgCl2, 1 mM TCEP, 1 mM ATP, 25 C; AdML pull-down: 20 mM HEPES pH 7.9, 100 mM KCl, 2 mM MgCl2, 5% glycerol, 0.1% …
[3] = biological target: the THO complex (recombinant, surface-immobilized; tetramer, dimer or monomer, not told apart in the sentence); experiment: grating-coupled interferometry (GCI); V5-tagged THO complex captured on an anti-V5 chip; UAP56 injected in a 1:2 series from 5 μM, alone or with only 1 mM ATP or only 200 μM 15 U RNA; 25 mM HEPES pH 7.9, 50 mM KCl, 1 mM MgCl2, 1 mM TCEP, 25 °C; one-to-one model
[4] = biological target: ALYREF N-UBM peptide, biotinylated (human); experiment: grating-coupled interferometry (GCI); biotinylated UBM or UCM peptides captured on a streptavidin chip; UAP56 injected; 25 mM HEPES pH 7.9, 50 mM KCl, 1 mM MgCl2, 1 mM TCEP, 25 °C; one-to-one model; UCM peptides also with AMP-PNP or AMP-PNP and 15 U RNA

Substance: UUUUUUUUUUUUUUU [15U RNA]
Kd [1]: 120 nM

Substance: AdML RNA with MS2 loops, 450 nt
binding signal [2]: 100%

Kd [3]: 240 to 390 nM
Kd [4]: 28000 nM
Substance: UAP56 (from UniProt Q13838 1-428) (enzyme)
